Consider three substances from patent US5215888A, “Kit for assaying the cellular integrity of blood platelets” (Yeda Research and Development Co. Ltd., priority 1988, dated 1993).

Ends that are not written are not given here.

The target of one assay is T1, PKA (Homo sapiens, UniProt P17612).
T1 construct: pure catalytic subunit of PKA from rabbit muscle; from tissue
Put plainly: Inhibition of vitronectin phosphorylation by PKA in the presence of competing peptide. It counts as biochemical. As to conditions: for inhibition of the phosphorylation of vitronectin by PKA (in words): competitive. The text has this:
Peptides containing the sequence Arg-Arg-Pro-X-Arg (X=Ser, Thr, Ala, Cys, Tyr) inhibit the phosphorylation of vitronectin by PKA.
FIG. 5 Inhibition of vitronectin phosphorylation by PKA in the presence of the indicated concentrations of a peptide identical in sequence to the site phosphorylated in vitronectin.

The test system of assay [1] is vitronectin phosphorylation by PKA. The assay is described as follows: Phosphorylation of vitronectin at various pH in the presence or absence of heparin. It counts as biochemical. As to conditions: 3-fold molar excess of heparin over vitronectin (2.7 μM); FIG. 6. As for the experimental part: The phosphorylation of vitronectin (p75 and mainly the p65 form) is affected by pH and by the presence of heparin in the reaction mixture (FIG. 6).
FIG. 6 Vitronectin (2.7 μM was incubated for 2 h at 22° C. with C (1 μg/ml) in the presence of Mg(CH3 COO)2 (10 mM), [γ^32 ]ATP 50 μM, 0.5 Ci/mmol), (50 Mes at the indicated pH), and a 3-fold molar excess of heparin over vitronectin (where indicated). The reaction was terminated by boiling in Laemli's sample buffer and the extent of phosphorylation was analyzed by polyacrylamide gel electrophoresis and autoradiography.

Turning to “-Arg-Arg-Pro-Ser-Arg- (RRPSR; printed: Arg-Arg-Pro-Ser-Arg-)”, the “inhibition of the phosphorylation of vitronectin by PKA (in words)” value in the assay with PKA is given as “competitively inhibit”.

Consider SRRPSRAT, for which the Ki with PKA (FIG. 5, peptide competes as alternative substrate, read-out: Ki concentration for inhibition of the phosphorylation of vitronectin by PKA) turned out to be 30 µM. Also, the “inhibition of the phosphorylation of vitronectin by PKA (in words)” value with PKA is given as “compete with (inhibit)”. Regarding heparin, in assay [1], the “effect on the amount of phosphorylation of vitronectin” value was “increase”.
